Experimental data published in the DeepSol protein solubility set.

Assay: soluble on expression in E. coli; label from the status in PepcDB or PDB records

Soluble on expression in E. coli, not soluble:
SLVRNGRIAFAGPESDLPDDLSTADETTDCGGRWITPALIDCHTHLVFGGNRAMEFEMRLNGATYEEIAKAGGGIVSSVRDTRALSDEVLVAQALPRLDTLLSEGVSTIEIKSGYGLDIETELKMLRVARRLETLRPVRIVTSYLAAHATPADYKGRNADYITDVVLPGLEKAHAEGLADAVDGFCEGIAFSVKEIDRVFAAAQQRGLPVKLHAEQLSNLGGAELAASYNALSADHLEYLDETGAKALAKAGTVAVLLPGAFYALREKQLPPVQALRDAGAEIALATDCNPGTSPLTSLLLTMNMGATLFRMTVEECLTATTRNAAKALGLLAETGTLEAGKSADFAIWDIERPAELVYRIGFNPLHARIFKGQKVSP
MGSDKIHHHHHHMSNTDKYYRDRSHITGKLDLQKLPKAIREKQYGIDVREAMAQTAEAIAGVQSTAQKFNQDTKNQVNQLDEKYTREIRAIVLGDTTSVATPPIQEPNSEASNPLSNLYETARGQVLYDFVKQSSLTKVSKIGVIGDSVAATAGGFPDILAHQYNIYVENLSVGGAKMSDYNHDAIVNQASRLQQCDVVIIQGTDDDWVHDISLGYAGDTNIKTYLGGLRETIKRVKNNNPKAKLIVVNCTRQCVDVHGKYRTEQSKNTFGLTLIDYMEAQKKYLNQQDVPYVDLMKPTSIFEPDNPAFKKTMMHDGLHPTPEAHQYIVQEIAKDYSYYYDK
MGSDKIHHHHHHMAPDTSMSSRDALPPLACLRAFEAAARHASFTQAGSELHLTQSAVSRQIKRLEDDLGRPLFERHYEGLRLTPAGERYFGVVQRLLRDLRDETARLRRRGDDRQLTLASSPTIASIWLARQLPDFQRAHPHIEIRILTVEDPHRLDLAEFDLGIYYHVPHEVDPPGLDAEAIFSHEEVAAVCSPAYLARHGDIRDADDLLARHTLMVVEDHYHDWLTWEGWYQAQNLAWRTPEHSLRANSFQLLMNAILAGQGVTLGWTRLLAADLAQHNLVQALPHTLPSRGRLSLLTPQHRHLTEPMRAFRAWVLGPA
MGSDKIHHHHHHMTILSDVKALGQQIWLDNLSRSLVQSGELAQMLKQGVCGVTSNPAIFQKAFAGDALYADEVAALKRQNLSPKQRYETMAVADVRAACDVCLAEHESTGGKTGFVSLEVSPELAKDAQGTVEEARRLHAAIARKNAMIKVPATDAGIDALETLVSDGISVNLTLLFSRAQTLKAYAAYARGIAKRLAAGQSVAHIQVVASFFISRVDSALDATLPDRLKGKTAIALAKAAYQDWEQYFTAPEFAALEAQGANRVQLLWASTGVKNPAYPDTLYVDSLIGVHTVNTVPDATLKAFIDHGTAKATLTESADEARARLAEIAALGIDVETLAARLQEDGLKQFEEAFEKLLAPLV
TLPRPFFILAPMEDVTNIVFRHVVSEAARPDVFFTEFTNTESYCHPEGIHSVRGRLTFSDDEQPMVAHIWGDKPEQFREMSIGLADMGFKGIDLNMGCPVANVAKKGKGSGLILRPETAAEIIQASKAGGLPVSVKTRLGYYDIDEWRDWLKHVFEQDIANLSIHLRTRKEMSKVDAHWELIEAIKTLRDEIAPNTLLTINGDIPDRQTGLELANKYGIDGIMIGRGIFHNPFAFEKEPREHSSKELLGL
MRVTDFSFELPESLIAHYPQPERSRCRLLSLEGPTGALTHGTFTDLLDKLNPGDLLVFNNTRVIPARLFGRKASGGKIEVLVERMLDDKRILAHIRASKAPKPGTELLLGDDESIHATMTARHGALFEVEFNDPRPVLDILNAIGHMPLPPYIDRPDEDADRELYQTVYSEKPGAVAAPTAGLHFDEPLLAALREKGVEMAFVTLHVGAGTFQPVRVDTIEDHIMHSEYAEVPQEVVDAVLAAKARGNRVIAVGTTSVRSLESAAQAAKSDLIEPFFGDTQIFIYPGYQYKVIDALITNFHLPESTLIMLVSAFAGYQHTMNAYKTAVEQKYRFFSYGDAMFITYNPQAISERP
MAKELAEKAKEAFLDDDFDVAVDLYSKAIDLDPNCAAFFADRAQANIKIDNFTEAVVDANKAIELEPTLAKAYLRKGTACMKLEEYSTAKAALEKGASVAPNEPKFKKMIDECDLRIAEEEKDLVQPMPPSLPSSSTTPLATEADAPPVPIPAAPAKPMFRHEFYQKPEEAVVTIFAKKVPKENVTVEFGEQILSVVIDVAGEEAYHLQPRLFGKIIPEKCRFEVLSTKVEIRLAKAEIITWASLEYGKGQSVLPKPNVSSALSQRPVYPSSKPAKDWDKLEAEVKKQEKDEKLDGDAAMNKFFSDIYSSADEDMRRAMNKSFAESNGTVLSTNWKEVGTKKVESTPPDGMELKKWEY
EGVAVMLFYSVGELFQDKAIDKAKRNISALLDVRPEKAVVVRSNEIVTVDPRSVLINEIIEIKAGERVPLDGVMLDEVAAFNTAALTGESVPRDISRGEEVLAGMIVTDKVIRMKVTKPFDKSALARILELVE
MSAWTMSDPYPATEAHAQRAAKSSPKSLLDRLLSLVRREPEDREGIKAILEAAHERELLDAESYAMIKGALAVSERTVADIMVPRSRMDLLDISQPLPQLLATIIETAHSRFPVYEDDRDNIIGILLAKDLLRYMLEPALDIRSLVRPAVFIPEVKRLNVLLREFRASRNHLAIVIDEHGGISGLVTMEDVLEQIVGDIEDEFDEDEEESIFPEGENQWRLTASTDISHFNATFATDLPDDEYDSVGGWLGGQLGRIPRRGDSADHDGLHIEVVRADARRALWLRVRRNAGAQPPASAAE
MAHHHHHHMSVVTTLSGVFEADLEATLMGYIHEAIGNAVNKGLQYARSTAQDRVLKMLIAYRRVCTSNATSSLLMPSRLRLIPLFVLSFMKADALVEGTTVPIDDRVQKLFLLMTIPMHQCVTYLYPTLYAVHHLLSEPTSGVIDPETGHCVLPGWQQLIFDSITTDGVYVLCDEQARIVYLWIGSSVVPEVSLELFGTTNALDVGRTVFFENFGERLKNVLYTCLMRDDGMRRFVILHEKDRGEEAFFRQFKEENEGGSMGYDQLLVHLHREVKKSIE
MGSDKIHHHHHHMKYTVIICDDNLNHASNLALKIGIAAMVDSGDNPDTEIDLEIGKIAQNALDVIEYLKENPISGGIYFLDIELSQEKNAMNGIDLAEQVKQLDPRAQIIFVTAYNEYMEMTFERRIGAVDYINKSNPNLQNRLNETLQDTVRRISKENYSKKMTFSYRLGRIIKNINIDDIYYISTTKAPHKLKLVKNDGTAEFAGDIKSVDKQNEFLTKVSQSYLVNPKNIVQINLKKKEITLSNGDAIKFSRRFTHVMKDMINTYNLKQNNYQI
MGSDKIHHHHHHVSDTVDHNAWKTTGVVVIQNDVLTLAGSNARALLNDGKGYTNFELDMDVRTTTGGKGYIGIHTDATDRKGYRIALNNDREDPVWWRMTGSLVSVRNLTKSFVKENEWFKMNIRVEGRLIRVRINGETVVEYIEPSKPFRLKENAKALLSQGTISLVGTGRGNLQFKNISLEAFSAKGIDIPAQWANAVDEQTDEIIRLHQEDFPVLDYHVHLKGGLTKEVAARQSRQTGVNYGLAINCGIGFSITNDTELYNYLDTMRTQPFILAMQAEGREWVTTFSEAARNSFDYVFTDAMTFLDHKGRRTHLWVNKEVIIDDEQAYMDMMLDRICSVLEEPVDMYVNSCFLPDAMSDRYDMFWTEERIDRFVNALAKSGKALEINELYHIPNKAIIQKAKAAGVKFTFGSNNITPEVGTLDYCIRMKKECGLTAQDMYKPHINI

Soluble on expression in E. coli, soluble:
MKIAIASSGTDLGSEVSRFFGRAPYFMIVEMKKGNIESSEVIENPSASASGGAGIRTAQIIANNGVKAVIASSPGPNAFEVLNELGIKIYRATGTSVEENLKLFTEGNLEEIRSPGSGRGRRRR
MAAPAASGLSRQVRSFSTSVVRPFAKLVRPPVQVYGIEGRYATALYSAASKEKKLDQVEKELLRVGQLLKDPKVSLAVLNPYIKRTVKVKSLNDITKREKFSPLTANLMNLLAENGRLGNTQGIISAFSTIMSVHRGEVPCTVTTASPLDDAVLSELKTVLKSFLSPNQILKLEIKTDPSIMGGMIVRIGEKYVDMSAKSKIQKLSKAMREML
MSLRGIRLQQPAGLASLSSVALPDPGQPAAGQIRVRLHASSLNFHDLGIVSGQMPTADGRIPMSDGAGVVEAVGEAVSDFAVGDHVVSTFFPQWLDGEPLHAGFATTPGDGVDGYARSAVVAAAQAFTHAPRGYSHAEAATLTTAGVTAWRALVVNGRIKAGDTVLVLGTGGVSIFALQFAKAMGAMVIVTSSSDQKLETARTLGADHCINYRQHTEWAAQVLEITNGRGVDHVVEVGGPGTLAQSIKAARVGGHIALIGVLTGAAGPVPTAEMMGRQQRLQGLVVGSRRHQQELVRALDGLPLRPVIDRSFALEDIAEAFALQHAGGHLGKIVLEFEGHHHHHH
MSLHGNSEMQKINQTSAMPEKTDVHWSGRFSVAPMLDWTDRHCRYFLRLLSRNTLLYTEMVTTGAIIHGKGDYLAYSEEEHPVALQLGGSDPAALAQCAKLAEARGYDEINLNVGCPSDRVQNGMFGACLMGNAQLVADCVKAMRDVVSIPVTVKTRIGIDDQDSYEFLCDFINTVSGKGECEMFIIHARKAWLSGLSPKENREIPPLDYPRVYQLKRDFPHLTMSINGGIKSLEEAKAHLQHMDGVMVGREAYQNPGILAAVDREIFGSSDTDADPVAVVRAMYPYIERELSQGTYLGHITRHMLGLFQGIPGARQWRRYLSENAHKAGADINVLEHALKLVADKREGHHHHHH
MKYSEIFKKRLGCKNTDEVFNYLLSHMKETIKGWDFFVAWEKVMNKVGSVEVVLNILNYLVGKENVVEEFKMLLGRYPEIAEVLPALLALREKSIKVVEPLADNVFNYKEYVFRKKKKYNPEEIEMLAEFAEKTGLLAMFEKKNIKSVVDYAIGVEVGLDTNARKNRSGTAMEMITELFVKKICSMNNYRYLSQATSHKIKTSFGYNVSVDKSERSFDFAIDNGHKLYLVETNYYGGGGSKLKSVAGEFTTLFSFIKKETPEHGFIWITDGKGWETAKKPLRESFDKVDYVLNLDMVQKGILEDIILQGL
MYKILEIADVVKVPPEEFGKDLKETVKKILMEKYEGRLDKDVGFVLSIVDVKDIGEGKVVHGDGSAYHPVVFETLVYIPEMYELIEGEVVDVVEFGSFVRLGPLDGLIHVSQIMDDYVSYDPKREAIIGKETGKVLEIGDYVRARIVAISLKAERKRGSKIALTMRQPYLGKLEWIEEEKAKKQNQE
MSLKVYITYGTADFLKTIVQKHPSENILLMQGQENAILIHETNGDTVFQAPHAYEVIDQVGEIKHPGFAVLNNIAVTQEGRPLFENRFKNRAGKVENEPGFEAIRVLRPLDSDTYVILTLWETESAFQDWQQSGSYKEAHKKRDTSAGIDTTSIFSRPSYVTTYFAVEEGGSHHHHHH
SAVAIPQATSLTNLVFLTKLIPRGSFTTILPKHHRKPIFVFSLQTQFSSPVTTLTSKNPKDDEQQQKLSFTLNYLIDSCGLSPDSATVASRKLLLDSPERPNTVLNLLRDHGFTTAQISSLVKKRPVLLLANAESVLLPKLSFFLSIGVSKSLLARTLASDPTILTRSLVNQLIPSYNFLKSVLDSDEKIVAALRRTTWVFLEDHTKNLVPNINYMAETGVPEKCIKLLLTHFPEAVMQKNHEFQAIAKQAQEMGFNPQKSTFVLAIHALSGKGNKSIWDKCFEVYQRWGWSEDDIMCAFKKHPHCMMLSERKINRTMEYFVNEMNMAPRSIAQCPVVLFFSLEKRIIPRCSVTKVLVSNGLVKEDWSLTSLLVPVEKVFLEKLVIKYEEELPELMNLYLGCTKL
